The nanobody polyreactivity screen of Harvey et al. (2022)

Assay: yeast display, Sf9 membrane polyspecificity reagent, FACS + sequencing; frameworks hold sequencing errors
Summary of the method: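 Synthetic nanobody libraries on Saccharomyces cerevisiae BJ5465 were galactose-induced for 36–48 hours, stained 1 hour at 4 °C with 10% biotinylated, detergent-solubilized Sf9 membrane reagent and enriched on streptavidin microbeads. FACS then separated cells into low and high (top ~1%) gates by anti-HA (expression) and streptavidin (reagent binding) fluorescence. Genes were colony-PCR amplified, MiSeq 2 × 250 sequenced and CDR-length filtered. A clone's polyreactivity label is that of its gate of origin.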

Sequence	polyreactivity (PSR sort gate)
QVQLVESGGGLVQAGGSLRLSCAASGSTLVYYDMGWYRKAPGKERELVATITGTDSTYYADSVKGRFTISRDNAKNTVYLQMNSLKPEDTADCAADRAASRPDYDYWGQGTQVTVSS	low polyreactivity
QVQLVESGGGLVQAGGSLRLSCAASGSTLWYNAMGWYRQAPGKERELVATITAGGGSTYYADSVKGRFTISRDNAKNTVYLQMNSLKPEDTAVYYCATRRSRGPWYRNAYDYWGQGTQVTVSS	low polyreactivity
QVQLVESGGGLVQAGGSLRLSCAASGSTLYAYAMGWYRQAPGKERELVAAISFSTTSTYYADSVKGRFTISRDNAKNTVYLQMNSLKPEVTAVYYCAAEYWYYWEYEYWGQGTQVTVSS	high polyreactivity
QVQLVESGGGLVQAGGSLRLSCAASGSTLYAYAMGWYRQAPGKERELVAAISSRAVRTYYADSVKGRFTISRDNAKNTVYLQMNSMKPEDTAVYYCAAQRSYAYEYWGQGTQVTVSS	high polyreactivity
QVQLVESGGGLVQAGGSLRLSCAASGSTLYAYAMGWYRQAPGKERELVAGISSSGARTYYADSVKGRFTISRDNAKITVYLQMNSLKPEDTAVYYCAALAPVGTSKSYGYWGQGTQVTVSS	high polyreactivity
QVQLVESGGGLVQAGGSLRLSCAASGSTLYAYAMGWYRQAPGKERELVASIPAGGITHYADSVKGRVTISRDNANNTVYLHMISLKPEDTAVDYCNTVAYLRRFDKWGMNYWGQGTQVTVSS	low polyreactivity
QVQLVESGGGLVQAGGSLRLSCAASGSTLYAYVMGWYRQAPGKERELVATISWSGGRTYYADSVKGRFTISRDNAKNTVYLQMNSLKPEDTAVYYCNARRRYSYVSRKFDYWGQGTQVTVSS	high polyreactivity
QVQLVESGGGLVQAGGSLRLSCAASGSTLYFNAMGWYRQAPGKERELVATITSGGSTYYADSVKGRFTISRDNAKNTVYFQMNSLKPEDTAAYYCNADFGSYATNGLTPLYDYWGQGTQVTVSS	high polyreactivity
QVQLVESGGGLVQAGGSLRLSCAASGSTLYGNVMGWYRQAPGKESELVATINRGGSTNYADSVKGRFTISRDNAKNTVYLQMNSLKPEDTAVYYCAARAFAWYYLEDYWGQGTQVTVSS	low polyreactivity
QVQLVESGGGLVQAGGSLRLSCAASGSTLYIYVMGWYRQAPGKERELVAAIDSGDDTDYADSVKGRFTISRDNAKNTVYLQMNSLKPEVTAVYYCAAQKWYYPYYWGKGTQVTVSS	high polyreactivity
QVQLVESGGGLVQAGGSLRLSCAASGSTLYRNAMGWYRQAPGKERELVAAISSSGGTTFYADSVKGRFTISGDNAKNTVYLQMNCLKPEDSAVYYCIRTARKLRTVHSSVVGLDYWGQGTQVTVSS	low polyreactivity
QVQLVESGGGLVQAGGSLRLSCAASGSTLYRYTMGWYRQAPGKERELVAAISSGGNTYYADSVKGRFTISRDNAKNTVYLQMNSLKPEDTAVYYCAAEDSVYIPYYDAFDYWGQGTQVTVSS	low polyreactivity
QVQLVESGGGLVQAGGSLRLSCAASGSTLYTYAMGWYRQAPGKERELVAAIRLSGGRTYYADSVKGRFTISRDNAQNTVYLQMNSLKPEDTAVYYCAVDWSYSRYDYWGQGTQVTVSS	high polyreactivity
QVQLVESGGGLVQAGGSLRLSCAASGSTLYTYAMGWYRQAPGKERELVATISWSGSSTYYADSVKGRFTISRDNAKNTVYLQMNSLKPEHTAVYYCAAPYHYWYRLDYWGQGTQVTVSS	high polyreactivity
QVQLVESGGGLVQAGGSLRLSCAASGSTLYYNAMGWFRQAPGKERELVARISRSGGSTYADSVKGRFTISRDNAKNTVYLQMNMLKRDDTAVYYCNADAYGTPEFTSYAVRYDYWGQGTQVTVSS	low polyreactivity
QVQLVESGGGLVQAGGSLRLSCAASGSTLYYNAMGWYRKAPGKERELVADITSGGSTSYADSVKGRFTISRDNAKNTVYLQMNSLKPEDTAVYYCAAVFYRRFDYWGQGTQVTVSS	low polyreactivity

Sequence	polyreactivity (PSR sort gate)
QVQLVESGGGLVQAGGSLRLSCAASGSTLYYNAMGWYRQAPGKERELVAAITSGGSTSYADSVKGRFTISRDNAKNTVYLQMNRLKPDDTAVYYCAAVFYRRFDYWGQGTQVTVSS	low polyreactivity
QVQLVESGGGLVQAGGSLRLSCAASGSTQRFYAMGWYRQAPGKERELVAVISRGGSTYFADSVKGRFTISRDNAKNTVYLQMNSLKPEDTAVYYCAAYHRTSAARPIYDYWGQGTQVTVSS	low polyreactivity
QVQLVESGGGLVQAGGSLRLSCAASGSTQRGYARGWYRQAPGKERELVASISRRGGSTYYADSVKGRFTISRDNAKNTVYLQMNSLKPEDTAVDYCAATGRRGYGYGYWGQGTQVTVSS	high polyreactivity
QVQLVESGGGLVQAGGSLRLSCAASGSTRRYFKGWYRQAPGKERELVAVISRGGSTYYADSVKGRFTISGDNAKNTVYLQMNSLKPEDTAVYYCNVQPVIPRGGDYWGQGTQVTVSS	high polyreactivity
QVQLVESGGGLVQAGGSLRLSCAASGSTRYNAMGWYRQAPGKERELVASIRGNAGSTYYADSVKGRFTISRDNAKNTVYLQMNSLKPEDTAVYYCNARVLRYSCFHYDYCGQGTQVTVSS	high polyreactivity
QVQLVESGGGLVQAGGSLRLSCAASGSTSDINAMGWYRQAPGKERELVAAISSSGGRTYYADSVKGRFTISRDNAKNTVYLQMNSLKPEDTAVYYCAADTYTSAQHEKYDYWGQGTQVTVSS	low polyreactivity
QVQLVESGGGLVQAGGSLRLSCAASGSTSDYYAMGWYRQAPGKERELVAAISWSGGSTYYADSVKGRFTISRDNAKNTVYLQMISLKPEDNAVYYCAAQHYNFSGPFEYWGQGTQVTVSS	low polyreactivity
QVQLVESGGGLVQAGGSLRLSCAASGSTSERYDMGWYRQAPGKERELVATITWSGGDTHYADSVKGRFTISRDNAKNTVYLQMNSLKPVDTAVYYCAAEYTFVWGLWYDYWGQGTQVTVSS	low polyreactivity
QVQLVESGGGLVQAGGSLRLSCAASGSTSFTYMGWYRQAPGTEREVVAAIDESGGSTYYADSVKGRFTISRDNAKNTVYLQMNTLKPEDTAGYYCTRRYGRSYRWGNGYWGQGTQVTVSA	low polyreactivity
QVQLVESGGGLVQAGGSLRLSCAASGSTSGIYAMGWYRQAHGKERELVAAIDTSGGSTYADSVKGRFTISRDNAKNTVYLQMNSLKPEETAVYYCAKPFSSNSWSHGYWGQGTQVTVSS	low polyreactivity
QVQLVESGGGLVQAGGSLRLSCAASGSTSHYNAMGWYRQAPGKERELVASITWSGGSTYYADSVKGRFTISRDNAKNTVYLQMYSLKPEDTAVYYCNAQERRVRDYDYWGQGTQVTVSS	low polyreactivity
QVQLVESGGGLVQAGGSLRLSCAASGSTSLFYAMGWYRQAPGKERELVAGITNTARTYADSVKGRFTISRDNAKNTVYLQMKSLKPEDTAVYYCATGYNRWRPTFPFYYWGLGTQVTVSS	high polyreactivity
QVQLVESGGGLVQAGGSLRLSCAASGSTSLVNAMGWYRQAPGKERELVAAITRGGNTYYADSVKGRFTISRDNAKNTVYLQMNSLKPEDTAVYYCNVGQDALYRLEYWGQGTQVTVSS	low polyreactivity
QVQLVESGGGLVQAGGSLRLSCAASGSTSLVYAMGWYRQAPGKERELVAAISWSGGSTYYADSVKGRFTISRDNAKNTVYLQMKSLKPEDTAVYYCAAEYYGYWEYDYWGQGTQVTVSS	high polyreactivity
QVQLVESGGGLVQAGGSLRLSCAASGSTSPRNAMGWYRQAPGKERELVAAISSGGRTNYAVSVKGRFTISRDNAKNTVYLQMNSLKPEDTAVYYCAAAVQSTYWGQGTQVTVSS	low polyreactivity
QVQLVESGGGLVQAGGSLRLSCAASGSTSPVYAMGWYRQAPGKERELVAAISSSGSRTYYADSVKGRFTISRDNAKNTVYLQMNCLKPEDSAVYYCAADWWAWRAYYYWGQGTQVTVSS	high polyreactivity
